According to US20240010721A1 (HARBOUR BIOMED SHANGHAI, published 2024):

B1: PR001353 (antibody, V domains shown)
VH: QVQLVESGGGVVQPGRSLRLSCVASGFTFSSYGMHWVRQAPGKGLEWVSVAWYDGISKDYADSVKGRFTISRDNSMNTLFLQMNSLRAEDTAVYYCAREQARSFDLWGRGTLVTVSS
VL: not shown
notes: fully human IgG1, kappa
B2: PR001416 (antibody, human IgG1, kappa, V domains shown)
VH: QVQLVESGGGVVQPGRSLRLSCAASGFTFSTYGMHWVRQAPGKGLEWVAVIWYDGSDKDYADSVKGRFTISRDTSKNTLYLQMNSLRAEDTAVYYCAREQARSFDLWGRGTLVTVSS
VL: DIVMTQSPSTLSASVGDRVTITCRASQTINNWLAWYQQKPGKAPKLLIYKASSLESGVPSRFSGSGSGTEFTLTISSLQPDDFATYYCQQYNSYSPMYTFGQGTKVEIKR
notes: fully human IgG1, kappa
B3: PR001419 (antibody, V domains shown)
VH: QVQLVESGGGVVQPGRSLRLSCAASGFTFSSYGMHWVRQAPGKGLEWVAIIWYDGISKNYADSVKGRFTISRDMSNNTVYLQMNSLRAEDTAVYYCAKEQARSFDLWGRGTLVTVSS
VL: not shown
notes: fully human IgG1, kappa
B4: PR001359 (antibody, human IgG1, kappa, V domains shown)
VH: QVQLVESGGGVVQPGRSLRLSCAASGFTFSTYGMHWVRQAPGKGLEWVAVTWYDGSDKDYADSVKGRFTISRDTSKNTLYLQMNSLRAEDTAVYYCAREQARSFDLWGRGTLVTVSS
VL: DIVMTQSPSTLSASVGDRVTITCRASQSVNNWLAWYQQKPGKAPKLLIYKASSLESGVPSRFSGSGSGTEFTLTISSLQPDDFATYYCQQYKSYSPMYTFGQGTKVEIKR
notes: fully human IgG1, kappa
B5: PR001355 (antibody, human IgG1, kappa, V domains shown)
VH: QVQLVQSGGGLVQPGGSLRLSCAASGFTFSSYGMHWVRQAPGKGLEWVAVIWYDGSNKDYADSVKGRFTISRDTSKNTLYLQMNSLRAEDTAVYYCVREQARSFDLWGRGTLVTVSS
VL: DIQMTQSPSSLSASVGDRVTITCRASQTMNNWLAWYQQKPGKAPKLLIYKASSLESGVPSRFSGSGSGTEFTLTISSLQPDDSATYYCQQYNSYSPMYTFGQGTKLEIKR
notes: fully human IgG1, kappa
B6: PR001417 (antibody, V domains shown)
VH: QVQLVESGGGVVQPGRSLRLSCAASGFSFSSYAMHWVRQAPGRGLEWVAVIWYDGGDEDYIDSVKGRFTISRDDSKNTLYLQMNSLRAEDTAVYYCAREQARSFDLWGRGTLVTVSS
VL: DVVMTQSPSTLSASVGDRVTITCRASQSINSWLAWYQQKPGKAPKLLIYKASSLESGVPSRFSGSGSGTEFTLTISSLQPDDFATYYCQQYNSYSPMYTFGQGTKVEIKR
notes: fully human IgG1, kappa
B7: PR001415 (antibody, human IgG1, kappa, V domains shown)
VH: EVQLVESGGGVVQPGRSLRLSCAASGFTFSNSGMHWVRQAPGKGLEWVAIMWYDGSNKDYADSVKGRFTISRDTSKNTLYLQMNSLRAEDTAVYYCAREQARSFDLWGRGTLVTVSS
VL: DIVMTQSPSTLSASVGDRVTITCRASQTINNWLAWYQQKPGKAPKLLIYKASSLESGVPSRFSGSGSGTEFTLTISSLQPDDFATYYCQQYNSYSPMYTFGQGTKVEIKR
notes: fully human IgG1, kappa
B8: PR001357 (antibody, human IgG1, kappa, V domains shown)
VH: QVQLVQSGGGVVQPGRSLRLSCAASGFTFSSYGMHWVRQAPGKGLEWVAVIWYDGSNKDYADSVKGRFTISRDTSKNTLYLQMNSLRAEDTAVYYCAREQARSFDLWGRGTLVTVSS
VL: DIQLTQSPYSLSASVGDRVTITCRASQTINNWLAWYQQKPGKAPKLLIYKASSLESGVPSRFSGSGSGTEFTLTISSLQPDDFATYYCQQYKLYSPMYTFGQGTKVEIKR
notes: fully human IgG1, kappa
B9: PR001418 (antibody, human IgG1, kappa, V domains shown)
VH: QVQLVESGGGVVQPGRSLRLSCAASGFTFSSYGMHWVRQAPGKGLEWVAVIWYDGSDKDYADSVKGRFTISRDTSKNTLYLQMNSLRAEDTAVYYCAREQARSFDLWGRGTLVTVSS
VL: DIVMTQSPSTLSASVGDRVTITCRASQTINNWLAWYQQKPGKAPKLLIYKASSLESGVPSRFSGSGSGTEFTLTISSLQPDDFATYYCQQYNSYSPMYTFGQGTKLEIKR
notes: fully human IgG1, kappa

What was measured:
[1] = molecular target: ROR1 (antigen of the KD determination and of the Octet dissociation measurement) (UniProt Q01973 30-403, limits assumed); test: method not stated (conventional procedures)
Sequence of ROR1 (antigen of the KD determination and of the Octet dissociation measurement) (Q01973 30-403 limits assumed): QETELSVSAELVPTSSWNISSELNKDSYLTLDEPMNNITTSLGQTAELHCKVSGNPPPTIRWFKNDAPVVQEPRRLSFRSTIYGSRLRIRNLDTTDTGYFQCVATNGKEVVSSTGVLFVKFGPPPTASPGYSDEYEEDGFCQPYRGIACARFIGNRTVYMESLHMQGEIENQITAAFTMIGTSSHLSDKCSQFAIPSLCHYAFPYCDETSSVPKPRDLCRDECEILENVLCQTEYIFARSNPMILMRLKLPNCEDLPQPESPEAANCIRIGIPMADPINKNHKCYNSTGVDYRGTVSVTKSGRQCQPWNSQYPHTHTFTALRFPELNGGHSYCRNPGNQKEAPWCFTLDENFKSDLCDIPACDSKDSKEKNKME

[2] = molecular target: T1, cynomolgus ROR1 (cynoROR1) on CHO-K1 cells (cynomolgus, UniProt A0A2K5WTX7 30-937); test: FACS, CHO-K1-cynoROR1 cells
T1 construct: whole, on cells; also called CHO-K1-cynoROR1; CHO-K1-cyROR1
Method: (§1) The binding properties were characterized by FACS. The recombinant antibodies obtained above were serially diluted to 9 different concentrations and incubated for 1 h, and then determined for the binding ability with HEK293T-hROR1, CHO-K1-cynoROR1 and A549 cell lines (endogenously expressing ROR1), respectively. The secondary antibody was then incubated for 1 h. The results are shown in FIG. 4-6 and Table 7-2 below.

[3] = molecular target: T2, human ROR1 (hROR1) on cells (human, UniProt Q01973 30-937); test: cell-based or functional assay
T2 sequence (Q01973 30-937): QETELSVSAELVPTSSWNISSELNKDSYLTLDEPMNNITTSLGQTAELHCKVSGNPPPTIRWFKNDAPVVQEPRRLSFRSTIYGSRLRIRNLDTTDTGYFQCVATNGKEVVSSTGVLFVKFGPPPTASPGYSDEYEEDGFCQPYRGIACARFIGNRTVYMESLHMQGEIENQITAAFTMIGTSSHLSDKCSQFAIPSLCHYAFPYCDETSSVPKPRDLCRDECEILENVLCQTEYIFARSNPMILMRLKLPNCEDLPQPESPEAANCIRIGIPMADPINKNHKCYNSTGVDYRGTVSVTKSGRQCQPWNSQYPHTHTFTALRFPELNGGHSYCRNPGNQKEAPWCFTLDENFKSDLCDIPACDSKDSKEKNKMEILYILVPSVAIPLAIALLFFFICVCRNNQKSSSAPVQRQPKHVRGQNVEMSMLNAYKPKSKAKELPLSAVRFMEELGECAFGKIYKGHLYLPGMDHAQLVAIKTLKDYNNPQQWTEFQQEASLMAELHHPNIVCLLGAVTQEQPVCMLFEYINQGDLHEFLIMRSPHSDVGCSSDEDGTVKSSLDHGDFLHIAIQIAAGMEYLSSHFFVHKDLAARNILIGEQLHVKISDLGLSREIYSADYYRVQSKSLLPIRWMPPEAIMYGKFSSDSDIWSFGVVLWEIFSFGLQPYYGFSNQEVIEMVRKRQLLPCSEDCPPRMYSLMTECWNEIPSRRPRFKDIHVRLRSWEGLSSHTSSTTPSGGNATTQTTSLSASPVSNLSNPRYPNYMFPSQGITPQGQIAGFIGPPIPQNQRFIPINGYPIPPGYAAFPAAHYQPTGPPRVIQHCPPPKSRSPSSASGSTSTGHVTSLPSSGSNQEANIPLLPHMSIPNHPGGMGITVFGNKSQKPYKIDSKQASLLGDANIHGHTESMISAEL

[4] = molecular target: T2, human ROR1 (hROR1) on cells; test: cell-based or functional assay; remark: listed apart in the source
[5] = molecular target: T2, human ROR1 (hROR1) on cells; test: FACS, HEK293T-hROR1 cells; cytometer saturated
Method: as §1

[6] = molecular target: T3, hROR2ECD-his (human, UniProt Q01974 34-403); test: ELISA, plate coated with hROR2 ECD-his
T3 construct: extracellular domain; bought, Acrobiosystems R02-H52E5; also called huROR2-his
T3 sequence (Q01974 34-403): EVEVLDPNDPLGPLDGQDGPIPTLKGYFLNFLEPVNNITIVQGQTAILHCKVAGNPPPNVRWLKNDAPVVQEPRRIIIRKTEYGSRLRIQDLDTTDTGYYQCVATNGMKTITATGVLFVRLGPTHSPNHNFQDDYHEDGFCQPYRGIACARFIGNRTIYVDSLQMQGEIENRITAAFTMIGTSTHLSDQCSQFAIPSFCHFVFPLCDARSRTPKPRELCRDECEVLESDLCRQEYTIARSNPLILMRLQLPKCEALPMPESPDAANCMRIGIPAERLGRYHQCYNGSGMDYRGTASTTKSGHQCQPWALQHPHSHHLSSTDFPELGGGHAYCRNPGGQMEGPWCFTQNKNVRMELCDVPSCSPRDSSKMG
Method: (§2) Screening by ELISA assay: 96-well plates (Corning 9018) were coated with 1 μg/mL hROR1 ECD-his/hROR2 ECD-his/mROR1 ECD-his proteins prepared with PBS in Example 1a above and incubated at 4° C. overnight. The liquid was then discarded, and the plates were washed 3 times with PBST, blocked with 5% milk for 2 h at room temperature, and washed 3 times with PBST. The taken supernatant was added at 100 μL/well, and the plates were incubated at room temperature for 1 h, followed by washing 3 times with PBST. 100 μL/well of secondary antibody (Sigma, Cat#: A8592) was added, the plates were incubated at room temperature for 1 h, and then washed. TMB was then added to the plates at 100 μL/well and incubated for 15 min at room temperature. Thereafter, the reaction was terminated and data were read.
(§3) a. Results of ELISA assay (the ELISA assay was performed according to the same procedures as in Example 2c, except that the added samples were recombinant antibodies and the secondary antibody was a-Fc (Genscript, Cat#: A01854))

[7] = molecular target: T2, human ROR1 (hROR1) on cells; test: FACS, HEK293T-hROR1 cells
Method: as §1

[8] = molecular target: T2, human ROR1 (hROR1) on cells; test: FACS, A549 cells
Method: as §1

[9] = molecular target: T4, Human ROR1-ECD-his (human, UniProt Q01973 30-406); test: ELISA, plate coated with hROR1 ECD-his
T4 construct: extracellular domain; bought, Acrobiosystems RO1-H522y; also called hROR1-ECD-his; hROR1 ECD-his
T4 sequence (Q01973 30-406): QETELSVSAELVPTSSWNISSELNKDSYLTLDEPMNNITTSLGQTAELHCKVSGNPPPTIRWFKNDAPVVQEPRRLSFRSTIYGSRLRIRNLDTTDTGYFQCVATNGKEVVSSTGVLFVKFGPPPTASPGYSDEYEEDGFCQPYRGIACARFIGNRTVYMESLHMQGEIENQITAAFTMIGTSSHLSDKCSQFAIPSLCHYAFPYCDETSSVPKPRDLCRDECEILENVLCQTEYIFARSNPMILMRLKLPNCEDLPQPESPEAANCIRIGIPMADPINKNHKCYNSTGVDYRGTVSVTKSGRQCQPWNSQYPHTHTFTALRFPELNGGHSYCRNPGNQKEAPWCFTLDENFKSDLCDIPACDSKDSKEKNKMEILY
Method: as §2, §3

[10] = molecular target: T3, hROR2ECD-his; test: ELISA, plate coated with hROR2 ECD-his; remark: listed apart in the source
Method: as §2, §3
The corresponding values in the table are the measured median fluorescence intensity (MFI).

[11] = molecular target: T2, human ROR1 (hROR1) on cells; test: flow cytometry (FACS) on A549 cells (endogenous ROR1), antibody 0.01-100 nM, median fluorescence intensity
Method: as §1

[12] = molecular target: T1, cynomolgus ROR1 (cynoROR1) on CHO-K1 …; test: flow cytometry (FACS) on CHO-K1-cynoROR1 cells, antibody 0.01-100 nM, median fluorescence intensity
Method: as §1

[13] = molecular target: T2, human ROR1 (hROR1) on cells; test: flow cytometry (FACS) on HEK293T-hROR1 cells, antibody 0.01-100 nM, median fluorescence intensity
Method: as §1

| Binder | Kd [1] [nM] | koff [1] [s⁻¹] | kon [1] [M⁻¹ s⁻¹] | MAX(MFI) [2] [MFI] | endocytosis EC50(nM) (a-hFc-MMAF killing, CTG luminescence) [3] | ADCC Cytotoxicity (%), Donor 1, 1 nM [4] [%] | ADCC Cytotoxicity (%), Donor 1, 10 nM [4] [%] | ADCC Cytotoxicity (%), Donor 2, 1 nM [4] [%] | ADCC Cytotoxicity (%), Donor 2, 10 nM [4] [%] | MAX(MFI) [5] [MFI] | ELISA signal (called MFI) [6] | fold lower EC50 than reference PR000374 [7] [fold] | MAX(MFI) [8] [MFI] | ELISA signal (called MFI) [9] | binding result [10] | EC50 (read off the curve) [11] [nM] | EC50 (read off the curve) [12] [nM] | EC50 (read off the curve) [13] [nM] |
| --- | --- | --- | --- | --- | --- | --- | --- | --- | --- | --- | --- | --- | --- | --- | --- | --- | --- | --- |
| B1 | 2.21 | 0.000927 | 419000 | 29000 | 0.149 | 30.5 | 42.3 | 14.1 | 21.5 | 262000 | 0.031 | 10 | 4330 | 2.54 | no binding | – | – | – |
| B2 | 1.27 | 0.000342 | 270000 | – | – | – | – | – | – | – | 0.0265 | 10 | – | 2.45 | no binding | ~0.4 | ~1 | ~2 |
| B3 | 3.01 | 0.00117 | 389000 | – | – | – | – | – | – | – | 0.025 | 10 | – | 2.44 | no binding | ~0.2 | ~0.7 | ~3 |
| B4 | 2 | 0.000637 | 320000 | 27200 | – | 33.7 | 39.5 | 21.9 | 26.1 | 262000 | 0.038 | 10 | 3930 | 2.39 | no binding | – | – | – |
| B5 | 0.839 | 0.000291 | 347000 | 30000 | – | 25.7 | 29 | 14.1 | 14.2 | 262000 | 0.0285 | 10 | 4240 | 2.54 | no binding | – | – | – |
| B6 | 14.9 | 0.00646 | 433000 | – | – | – | – | – | – | – | 0.027 | 10 | – | 2.38 | no binding | ~0.9 | ~2 | ~3 |
| B7 | 1.53 | 0.000512 | 336000 | – | – | – | – | – | – | – | 0.03 | 10 | – | 2.61 | no binding | ~0.4 | ~0.9 | ~3 |
| B8 | 0.481 | 0.000191 | 397000 | 24600 | 0.137 | 32.1 | 32.1 | 17.4 | 15.8 | 262000 | 0.04 | 10 | 4550 | 2.5 | no binding | – | – | – |
| B9 | 1.45 | 0.000423 | 292000 | – | – | – | – | – | – | – | 0.042 | 10 | – | 2.42 | no binding | ~0.4 | ~1 | ~3 |
